The target of data set [1] is γ-tubulin ring complex (γTuRC), endogenous Xenopus laevis, P23330;Q5U4M5. The data set is described as follows: pull-down from Xenopus egg extract, western blot quantification. To be noted: control (beads) bar est. 0.19, read off a plot; for ratio to parent: parent: est. 1.0; for response: scale: normalized band intensity. A general note: In western blotting, separated proteins are transferred to a membrane and probed.

The target in data set [2] is γ-tubulin ring complex (γTuRC), endogenous Xenopus laevis (Xenopus laevis (endogenous in egg extract)) (UniProt P23330).
Data set [3] has as its target Strep-His-TEV-HaloTag-3C-Xenopus γTuNA L70A (Xenopus laevis). The data set is described as follows: pull-down; Halo-Magne beads coupled to N-terminally Halo-tagged γTuNA baits; 200 µL Xenopus egg extract + 800 µL CSFxB (2% sucrose), 2 hr at 4 °C, washed twice, boiled in SDS sample buffer; western blot of GCP5 and γ-tubulin, band intensities normalised to the wildtype bait.

For data set [4], the target named is Strep-His-TEV-HaloTag-3C-Xenopus γTuNA I67A (Xenopus laevis). The description is as above.
Data set [5] concerns the target Strep-His-TEV-HaloTag-3C-Xenopus γTuNA (Xenopus Cdk5rap2 aa 56–101), wildtype (Xenopus laevis). In words: pull-down; depletion of Xenopus egg extract with Strep-His-Halo-Xenopus γTuNA-coupled beads, a single round; γ-tubulin left in the extract by western blot against mock-treated extract.
Data set [6] deals with AU1-human γTuNA (from Strep-His-Halo-3C-AU1-human γTuNA after PreScission cleavage) (human). The data set is described as follows: co-sedimentation; γTuRC pulled from egg extract on Halo-3C-AU1-human γTuNA beads, eluted by 3C cleavage, 10–50% w/w sucrose gradient (200,000 g, 2 °C, 3 hr); AU1 in the peak γTuRC fraction by western blot against a titration of AU1.
Data set [7] addresses γ-tubulin ring complex (γTuRC), endogenous Xenopus laevis (Xenopus laevis (endogenous in egg extract)) (UniProt P23330). This is another data set of the same source.
Data set [8] deals with the molecule itself. In words: SEC; Superdex 200 increase 10/300 GL, ~50 µM (monomer), CSFxB with 6 mM BME without sucrose, 4 °C, 0.7 mL/min; peak retention volumes compared. (In general: In gel filtration, larger molecules generally elute earlier.)

No end group written: not given here. 3C = human rhinovirus 3C (PreScission) protease cleavage site; TEV = tobacco etch virus protease cleavage site; Strep‑His = not defined here

γ-tubulin ring complex (γTuRC), endogenous Xenopus laevis (Xenopus laevis (endogenous in egg extract)), sequence (P23330 whole entry, looked up, one chain of several): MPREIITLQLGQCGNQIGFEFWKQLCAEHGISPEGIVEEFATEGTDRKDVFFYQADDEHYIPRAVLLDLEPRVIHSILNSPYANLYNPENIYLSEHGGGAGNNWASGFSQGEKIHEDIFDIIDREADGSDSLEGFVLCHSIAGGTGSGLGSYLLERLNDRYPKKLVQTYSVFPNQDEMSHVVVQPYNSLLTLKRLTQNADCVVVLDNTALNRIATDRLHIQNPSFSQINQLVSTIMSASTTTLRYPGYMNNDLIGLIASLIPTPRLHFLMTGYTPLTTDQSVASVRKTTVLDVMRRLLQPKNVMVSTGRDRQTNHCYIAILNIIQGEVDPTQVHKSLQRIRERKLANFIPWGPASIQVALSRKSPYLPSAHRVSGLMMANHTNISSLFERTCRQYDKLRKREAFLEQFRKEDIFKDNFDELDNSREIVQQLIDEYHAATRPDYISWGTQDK

In the case of “Strep-His-TEV-HaloTag-3C-human γTuNA (human CDK5RAP2 aa 53–98), wildtype I67D; L70D”, in data set [1] (N=3), the ratio to parent came out at 0.1.
With “Strep-His-TEV-HaloTag-3C-Xenopus γTuNA (Xenopus Cdk5rap2 aa 56–101), wildtype F63A”, the ratio to parent in data set [1] (N=2) was 0.66.
Turning to “Strep-His-TEV-HaloTag-3C-human γTuNA (human CDK5RAP2 aa 53–98), wildtype I67D; L70D; L77D”, the ratio to parent in data set [1] (N=3) worked out at 0.07.
In data set [2], “Strep-His-Xenopus γTuNA L70A (domain or fragment)” returned an MT number (EB1 spots) in egg extract with 2 µM γTuNA, relative to wildtype γTuNA (% of wildtype) of 6.
Turning to “Strep-His-TEV-HaloTag-3C-human γTuNA (human CDK5RAP2 aa 53–98), wildtype I67A; L70A”, the response in data set [1] (N=2, human wildtype not shown in this panel) turned out to be 0.16.
As to “γ-tubulin ring complex (γTuRC), endogenous Xenopus laevis (from UniProt P23330 1-451; Q5U4M5 1-72)”, the figures for the γTuRC pulled down, percent of wildtype in data set [3] and in data set [4] were 35% and 67%, respectively. Moreover, in data set [5], the percent of γ-tubulin signal lost from the extract after one depletion was > 75%. Further, in data set [6], the percent of purified γTuRCs that retain a γTuNA dimer came out at 33%.
Turning to “Strep-His-TEV-HaloTag-3C-Xenopus γTuNA (Xenopus Cdk5rap2 aa 56–101), wildtype I67D; L70D”, the response in data set [1] (N=3, parent: est. 1.06) turned out to be 0.01.
For “Strep-His-Xenopus γTuNA I67A (domain or fragment)”, the MT number (EB1 spots) in egg extract with 2 µM γTuNA, relative to wildtype γTuNA (% of wildtype) in data set [2] was determined as 50.
Turning to “Strep-His-TEV-HaloTag-3C-Xenopus γTuNA (Xenopus Cdk5rap2 aa 56–101), wildtype L77A”, in data set [1] (N=2), the ratio to parent turned out to be 0.05.
“Strep-His-Xenopus γTuNA, wildtype (domain or fragment)” displayed an MT number (EB1 spots) in Xenopus egg extract by TIRF, titration of γTuNA up to 3.6 µM, fold over buffer in data set [7] of 75 fold.
In the case of “Strep-His-TEV-HaloTag-3C-Xenopus γTuNA (Xenopus Cdk5rap2 aa 56–101), wildtype F75A”, the ratio to parent in data set [1] (N=2) amounted to 0.08. In addition, in data set [1] (N=3, parent: est. 1.06), the response was 0.02.

B1: Strep-His-TEV-HaloTag-3C-human γTuNA (human CDK5RAP2 aa 53–98), wildtype (domain or fragment)
chain: {Strep‑His-TEV-HaloTag-3C}-SPTRARNMKDFENQITELKKENFNLKLRIYFLEERMQQEFHGPTEH
modifications: reading uncertain
notes: γTuNA (CM1) domain of human CDK5RAP2 isoform A (1893 aa), aa 53–98; TEV and PreScission (3C) cleavage sites lie between the tags and γTuNA; also called Halo-human γTuNA; human wildtype Halo-γTuNA; source: E. coli Rosetta 2 (DE3), purified (Strep-Tactin); not shown: StrepTagII, N-terminal, kept; 6xHis, N-terminal, kept; HaloTag, N-terminal, kept
One may read the stoichiometry N as a count of units in the complex or per binding partner. With B1, the “stoichiometry N” value in data set [8] turned out to be 2.

B2: Strep-His-TEV-HaloTag-3C-Xenopus γTuNA (Xenopus Cdk5rap2 aa 56–101), wildtype (domain or fragment, Xenopus laevis)
chain: {Strep‑His-TEV-HaloTag-3C}-MKDFEKQIAELKKENFNLKLRIYFLEEQVQQKCDNSSEDLYRMNIE
modifications: reading uncertain
notes: γTuNA (CM1) domain of Xenopus laevis Cdk5rap2 isoform X1 (905 aa), aa 56–101; TEV and PreScission (3C) cleavage sites lie between the tags and γTuNA; also called Halo-Xenopus γTuNA; Strep-His-Halo-Xenopus γTuNA; source: E. coli Rosetta 2 (DE3), purified (Strep-Tactin); not shown: StrepTagII, N-terminal, kept; 6xHis, N-terminal, kept; HaloTag, N-terminal, kept
As for B2, the “stoichiometry N” value in data set [8] is 2.

B3: Strep-His-TEV-HaloTag-3C-Xenopus γTuNA F75A (Xenopus F71A) (domain or fragment, Xenopus laevis)
chain: {Strep‑His-TEV-HaloTag-3C}-MKDFEKQIAELKKENANLKLRIYFLEEQVQQKCDNSSEDLYRMNIE
modifications: reading uncertain
notes: γTuNA of Xenopus laevis Cdk5rap2 isoform X1, aa 56–101; it is F71 in Xenopus; also called Halo-Xenopus γTuNA F75A; Xenopus F75A mutant; source: E. coli Rosetta 2 (DE3), purified (Strep-Tactin); not shown: StrepTagII, N-terminal, kept; 6xHis, N-terminal, kept; HaloTag, N-terminal, kept
Consider B3, for which, in data set [8], the binding result is recorded as “binds”.

The values above are taken from publication PMC9859039, “The conserved centrosomin motif, γTuNA, forms a dimer that directly activates microtubule nucleation by the γ-tubulin ring complex (γTuRC)” (eLife, 2022).
